The results in this text go back to PMC3046972, “Phosphorylation-Dependent 14-3-3 Binding to LRRK2 Is Impaired by Common Mutations of Familial Parkinson's Disease” (PLoS ONE, 2011).

Where no end group is shown, it is not given here. [ ]: non-standard residue; d: D form. pS = N[C@@H](COP(=O)(O)O)C(=O)O

One assay concerns the target Myc-14-3-3γ wild type (UniProt P61981). Kind of assay: co-IP; HEK-293T cells co-transfected with FLAG-LRRK2 (wild type or mutant) and Myc-14-3-3; immunoprecipitation with anti-Myc antibody overnight, washes with modified RIPA buffer (300 mM NaCl); blot with anti-FLAG; Figure 5C quantified with LI-COR Odyssey.
A further assay deals with T1, GST-14-3-3γ (UniProt P61981 1-247).
T1 construct: 14-3-3 gamma; also called purified GST-14-3-3γ; Sepharose bead-conjugated GST-14-3-3γ; source: bacteria (100 µM IPTG, 4 hours at 37°C), purified following the manufacturer's instruction (GE Healthcare)
T1 sequence (looked up): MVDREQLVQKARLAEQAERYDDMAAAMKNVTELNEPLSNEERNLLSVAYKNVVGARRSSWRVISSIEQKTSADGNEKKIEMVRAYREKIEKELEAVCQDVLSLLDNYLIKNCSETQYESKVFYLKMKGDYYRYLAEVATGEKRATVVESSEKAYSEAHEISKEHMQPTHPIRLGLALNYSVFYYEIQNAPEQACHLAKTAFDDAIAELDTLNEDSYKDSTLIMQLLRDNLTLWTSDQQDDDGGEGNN
The experiment in a line: pull-down; competition: synthetic peptide at various concentrations added to brain lysate of FLAG-LRRK2 Wt transgenic mice for 1 hour, then GST-14-3-3γ beads for 4 hours; read-out is the FLAG-LRRK2 pulled down. The following applies: both partners purified.

“FLAG-LRRK2 S935A mutant (from UniProt Q5S006 1-2527) (natural protein)” displayed a reduction of co-immunoprecipitation with Myc-14-3-3γ compared to wild type LRRK2 with Myc-14-3-3γ wild type of 90%.

For FLAG-LRRK2 G2019S mutant, Q5S006 1-2527, in the assay with Myc-14-3-3γ wild type, the reduction of co-immunoprecipitation with Myc-14-3-3γ compared to wild type LRRK2 was below 20%.

B1: phospho-peptide QRHSNpSLGPC (containing pS935 of LRRK2) (peptide)
peptide: Ac-QRHSN[pS]LGPC
notes: stretch of LRRK2 around S935; C-terminal cysteine printed only in the methods; The results print the peptide without the last C (QRHSNpSLGP); the methods print QRHSNpSLGPC; also called pS935-containing peptide; phosphorylated peptide (pS935); source: synthetic peptide (The Rockefeller University Proteomics Resource Center, HPLC purified)
For B1, the binding result with GST-14-3-3γ is on record as “binds”.
